Results reported in EP1137786B1 (UNIVERSITY OF MARYLAND BIOTECHNOLOGY INSTITUTE, dated 2007).

Biological target: full-length single chain (FLSC) gp120-CD4 chimeric polypeptide (HIV-1 BaL; human)
Experiment: flow cytometry on L1.2/X4 cells

B1: CXCR4 (receptor)
chain: MEGISIYTSDNYTEEMGSGDYDSMKEPCFREENANFNKIFLPTIYSIIFLTGIVGNGLVILVMGYQKKLRSMTDKYRLHLSVADLLFVITLPFWAVDAVANWYFGNFLCKAVHVIYTVNLYSSVLILAFISLDRYLAIVHATNSQRPRKLLAEKVVYVGVWIPALLLTIPDFIFANVSEADDRYICDRFYPNDLWVVVFQFQHIMVGLILPGIVILSCYCIIISKLSHSKGHQKRKALKTTVILILAFFACWLPYYIGISIDSFILLEIIKQGCEFENTVHKWISITEALAFFHCCLNPILYAFLGAKFKTSAQHALTSVSRGSSLKILSKGKRGGHSSVSTESESSSFHSS
notes: whole, on cells; also called X4; L1.2/X4 cells
- binding result: no binding
